Measurements: the supplement of paper PMC11780869

Tested on: Bacillus subtilis
Assay: cleaved RNA product abundance (RNA/gDNA barcode ratio) relative to median wild-type variant (ratio to wild type); higher = more accumulation of the downstream cleavage product
Conditions: experiment (reporter, strain, medium): exp 8a: truncated aprE reporter, strain BJT201 with 2% xylose (RNase J1 expressed); cleavage site: glnRA (positions -5 to +31 mutated)
Procedure, shortened: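 B. subtilis strains with chromosomally integrated reporter mRNAs (truncated aprE or tetM) holding barcoded, mutagenized RNase Y cleavage-site windows grew in LB at 37°C from OD600 0.0003 to 0.3. Cleaved product abundance is each construct's RNA:gDNA barcode ratio, scaled to the median construct with the unmutated site. It came from sequencing barcodes of gel-selected, reverse-transcribed cleaved RNA and of genomic DNA.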

Sequence: CGACATGTCCCGCTTCTTTCATTACTCCGTTAGAAACTGTTTTGCTATATACATTTACCTTTTAAGAGGAGGAAT
- cleaved RNA product abundance: 0.478

Sequence: CGACATGTCCCGCTTCTTTCATTACTCCGTTAGCAAATGTTTTGCTATATACATTTACCTTTTAAGAGGAGGAAT
- cleaved RNA product abundance: 1.14

Sequence: CGACATGTCCCGCTTCTTTCATTACTCCGTTAGCAACAGTTATGCTATATACATTTACCTTTTAAGAGGAGGAAT
- cleaved RNA product abundance: 0.735

Sequence: CGACATGTCCCGCTTCTTTCATTACTCCGTTAGCAACAGTTTTGCTATATACATTTACCTTTTAAGAGGAGGAAT
- cleaved RNA product abundance: 0.834

Sequence: CGACATGTCCCGCTTCTTTCATTACTCCGTTAGCAACTATTTTGCTATATACATTTACCTTTTAAGAGGAGGAAT
- cleaved RNA product abundance: 1.31

Sequence: CGACATGTCCCGCTTCTTTCATTACTCCGTTAGCAACTCTTTTGCTATATACATTTACCTTTTAAGAGGAGGAAT
- cleaved RNA product abundance: 1.33

Sequence: CGACATGTCCCGCTTCTTTCATTACTCCGTTAGCAACTGCTTTGCTATATACATTTACCTTTTAAGAGGAGGAAT
- cleaved RNA product abundance: 0.597

Sequence: CGACATGTCCCGCTTCTTTCATTACTCCGTTAGCAACTGTATTGCTATATACATTTACCTTTTAAGAGGAGGAAT
- cleaved RNA product abundance: 0.89

Sequence: CGACATGTCCCGCTTCTTTCATTACTCCGTTAGCAACTGTCTTGCTATATACATTTACCTTTTAAGAGGAGGAAT
- cleaved RNA product abundance: 0.946

Sequence: CGACATGTCCCGCTTCTTTCATTACTCCGTTAGCAACTGTGTTGCTATATACATTTACCTTTTAAGAGGAGGAAT
- cleaved RNA product abundance: 0.327

Sequence: CGACATGTCCCGCTTCTTTCATTACTCCGTTAGCAACTGTTATGCTATATACATTTACCTTTTAAGAGGAGGAAT
- cleaved RNA product abundance: 0.602

Sequence: CGACATGTCCCGCTTCTTTCATTACTCCGTTAGCAACTGTTTAGCTATATACATTTACCTTTTAAGAGGAGGAAT
- cleaved RNA product abundance: 0.694

Sequence: CGACATGTCCCGCTTCTTTCATTACTCCGTTAGCAACTGTTTGGCTATATACATTTACCTTTTAAGAGGAGGAAT
- cleaved RNA product abundance: 0.644

Sequence: CGACATGTCCCGCTTCTTTCATTACTCCGTTAGCAACTGTTTTACTATATACATTTACCTTTTAAGAGGAGGAAT
- cleaved RNA product abundance: 0.792

Sequence: CGACATGTCCCGCTTCTTTCATTACTCCGTTAGCAACTGTTTTCCTATATACATTTACCTTTTAAGAGGAGGAAT
- cleaved RNA product abundance: 0.679

Sequence: CGACATGTCCCGCTTCTTTCATTACTCCGTTAGCAACTGTTTTGATATATACATTTACCTTTTAAGAGGAGGAAT
- cleaved RNA product abundance: 0.587

Sequence: CGACATGTCCCGCTTCTTTCATTACTCCGTTAGCAACTGTTTTGCAATATACATTTACCTTTTAAGAGGAGGAAT
- cleaved RNA product abundance: 0.515

Sequence: CGACATGTCCCGCTTCTTTCATTACTCCGTTAGCAACTGTTTTGCCATATACATTTACCTTTTAAGAGGAGGAAT
- cleaved RNA product abundance: 0.246

Sequence: CGACATGTCCCGCTTCTTTCATTACTCCGTTAGCAACTGTTTTGCGATATACATTTACCTTTTAAGAGGAGGAAT
- cleaved RNA product abundance: 0.388

Sequence: CGACATGTCCCGCTTCTTTCATTACTCCGTTAGCAACTGTTTTGCTAAATACATTTACCTTTTAAGAGGAGGAAT
- cleaved RNA product abundance: 1.11

Sequence: CGACATGTCCCGCTTCTTTCATTACTCCGTTAGCAACTGTTTTGCTATAAACATTTACCTTTTAAGAGGAGGAAT
- cleaved RNA product abundance: 0.608

Sequence: CGACATGTCCCGCTTCTTTCATTACTCCGTTAGCAACTGTTTTGCTATACACATTTACCTTTTAAGAGGAGGAAT
- cleaved RNA product abundance: 0.423

Sequence: CGACATGTCCCGCTTCTTTCATTACTCCGTTAGCAACTGTTTTGCTATAGACATTTACCTTTTAAGAGGAGGAAT
- cleaved RNA product abundance: 0.738

Sequence: CGACATGTCCCGCTTCTTTCATTACTCCGTTAGCAACTGTTTTGCTATATAAATTTACCTTTTAAGAGGAGGAAT
- cleaved RNA product abundance: 0.276

Sequence: CGACATGTCCCGCTTCTTTCATTACTCCGTTAGCAACTGTTTTGCTATATACAATTACCTTTTAAGAGGAGGAAT
- cleaved RNA product abundance: 1.14

Sequence: CGACATGTCCCGCTTCTTTCATTACTCCGTTAGCAACTGTTTTGCTATATACACTTACCTTTTAAGAGGAGGAAT
- cleaved RNA product abundance: 0.587

Sequence: CGACATGTCCCGCTTCTTTCATTACTCCGTTAGCAACTGTTTTGCTATATACATATACCTTTTAAGAGGAGGAAT
- cleaved RNA product abundance: 0.767

Sequence: CGACATGTCCCGCTTCTTTCATTACTCCGTTAGCAACTGTTTTGCTATATACATCTACCTTTTAAGAGGAGGAAT
- cleaved RNA product abundance: 0.75

Sequence: CGACATGTCCCGCTTCTTTCATTACTCCGTTAGCAACTGTTTTGCTATATACATTAACCTTTTAAGAGGAGGAAT
- cleaved RNA product abundance: 1.36

Sequence: CGACATGTCCCGCTTCTTTCATTACTCCGTTAGCAACTGTTTTGCTATATACATTCACCTTTTAAGAGGAGGAAT
- cleaved RNA product abundance: 0.658

Sequence: CGACATGTCCCGCTTCTTTCATTACTCCGTTAGCAACTGTTTTGCTATATACATTGACCTTTTAAGAGGAGGAAT
- cleaved RNA product abundance: 1.16

Sequence: CGACATGTCCCGCTTCTTTCATTACTCCGTTAGCAACTGTTTTGCTATATACATTTACATTTTAAGAGGAGGAAT
- cleaved RNA product abundance: 1.39

Sequence: CGACATGTCCCGCTTCTTTCATTACTCCGTTAGCAACTGTTTTGCTATATACATTTACCATTTAAGAGGAGGAAT
- cleaved RNA product abundance: 1.3

Sequence: CGACATGTCCCGCTTCTTTCATTACTCCGTTAGCAACTGTTTTGCTATATACATTTACCGTTTAAGAGGAGGAAT
- cleaved RNA product abundance: 1.01

Sequence: CGACATGTCCCGCTTCTTTCATTACTCCGTTAGCAACTGTTTTGCTATATACATTTACCTTTTAAGAGGAGGAAT
- cleaved RNA product abundance: 1.1

Sequence: CGACATGTCCCGCTTCTTTCATTACTCCGTTAGCAACTGTTTTGCTATATACATTTACGTTTTAAGAGGAGGAAT
- cleaved RNA product abundance: 0.893

Sequence: CGACATGTCCCGCTTCTTTCATTACTCCGTTAGCAACTGTTTTGCTATATACATTTACTTTTTAAGAGGAGGAAT
- cleaved RNA product abundance: 1.59

Sequence: CGACATGTCCCGCTTCTTTCATTACTCCGTTAGCAACTGTTTTGCTATATACATTTATCTTTTAAGAGGAGGAAT
- cleaved RNA product abundance: 1.8

Sequence: CGACATGTCCCGCTTCTTTCATTACTCCGTTAGCAACTGTTTTGCTATATACATTTGCCTTTTAAGAGGAGGAAT
- cleaved RNA product abundance: 0.366

Sequence: CGACATGTCCCGCTTCTTTCATTACTCCGTTAGCAACTGTTTTGCTATATACATTTTCCTTTTAAGAGGAGGAAT
- cleaved RNA product abundance: 0.403

Sequence: CGACATGTCCCGCTTCTTTCATTACTCCGTTAGCAACTGTTTTGCTATATACGTTTACCTTTTAAGAGGAGGAAT
- cleaved RNA product abundance: 0.332

Sequence: CGACATGTCCCGCTTCTTTCATTACTCCGTTAGCAACTGTTTTGCTATATACTTTTACCTTTTAAGAGGAGGAAT
- cleaved RNA product abundance: 0.592

Sequence: CGACATGTCCCGCTTCTTTCATTACTCCGTTAGCAACTGTTTTGCTATATATATTTACCTTTTAAGAGGAGGAAT
- cleaved RNA product abundance: 1.44

Sequence: CGACATGTCCCGCTTCTTTCATTACTCCGTTAGCAACTGTTTTGCTATATCCATTTACCTTTTAAGAGGAGGAAT
- cleaved RNA product abundance: 0.21

Sequence: CGACATGTCCCGCTTCTTTCATTACTCCGTTAGCAACTGTTTTGCTATATGCATTTACCTTTTAAGAGGAGGAAT
- cleaved RNA product abundance: 0.234

Sequence: CGACATGTCCCGCTTCTTTCATTACTCCGTTAGCAACTGTTTTGCTATCTACATTTACCTTTTAAGAGGAGGAAT
- cleaved RNA product abundance: 0.0823

Sequence: CGACATGTCCCGCTTCTTTCATTACTCCGTTAGCAACTGTTTTGCTATGTACATTTACCTTTTAAGAGGAGGAAT
- cleaved RNA product abundance: 0.117

Sequence: CGACATGTCCCGCTTCTTTCATTACTCCGTTAGCAACTGTTTTGCTATTTACATTTACCTTTTAAGAGGAGGAAT
- cleaved RNA product abundance: 0.151

Sequence: CGACATGTCCCGCTTCTTTCATTACTCCGTTAGCAACTGTTTTGCTCTATACATTTACCTTTTAAGAGGAGGAAT
- cleaved RNA product abundance: 0.288

Sequence: CGACATGTCCCGCTTCTTTCATTACTCCGTTAGCAACTGTTTTGCTGTATACATTTACCTTTTAAGAGGAGGAAT
- cleaved RNA product abundance: 0.372

Sequence: CGACATGTCCCGCTTCTTTCATTACTCCGTTAGCAACTGTTTTGCTTTATACATATACCTTTTAAGAGGAGGAAT
- cleaved RNA product abundance: 0.58

Sequence: CGACATGTCCCGCTTCTTTCATTACTCCGTTAGCAACTGTTTTGGTATATACATTTACCTTTTAAGAGGAGGAAT
- cleaved RNA product abundance: 0.278

Sequence: CGACATGTCCCGCTTCTTTCATTACTCCGTTAGCAACTGTTTTGTTATATACATTTACCTTTTAAGAGGAGGAAT
- cleaved RNA product abundance: 0.573

Sequence: CGACATGTCCCGCTTCTTTCATTACTCCGTTAGCAACTGTTTTTCTATATACATTTACCTTTTAAGAGGAGGAAT
- cleaved RNA product abundance: 0.594

Sequence: CGACATGTCCCGCTTCTTTCATTACTCCGTTAGCAACTGTTTTTCTATTTACATTTACCTTTTAAGAGGAGGAAT
- cleaved RNA product abundance: 0.151

Sequence: CGACATGTCCCGCTTCTTTCATTACTCCGTTAGCAACTTTTTTGCTATATACATTTACCTTTTAAGAGGAGGAAT
- cleaved RNA product abundance: 2.09

Sequence: CGACATGTCCCGCTTCTTTCATTACTCCGTTAGCAAGTGTTTTGCTATATACATTTACCTTTTAAGAGGAGGAAT
- cleaved RNA product abundance: 0.557

Sequence: CGACATGTCCCGCTTCTTTCATTACTCCGTTAGCAATTGTTTTGCTATATACATTTACCTTTTAAGAGGAGGAAT
- cleaved RNA product abundance: 1.23

Sequence: CGACATGTCCCGCTTCTTTCATTACTCCGTTAGCAGCTGTTTTGCTATATACATTTACCTTTTAAGAGGAGGAAT
- cleaved RNA product abundance: 0.827

Sequence: CGACATGTCCCGCTTCTTTCATTACTCCGTTAGCTACTGTTTTGCTATATACATTTACCTTTTAAGAGGAGGAAT
- cleaved RNA product abundance: 0.923

Sequence: CGACATGTCCCGCTTCTTTCATTACTCCGTTAGTAACGGTTTTGCTATATACATTTACCTTTTAAGAGGAGGAAT
- cleaved RNA product abundance: 0.281

Sequence: CGACATGTCCCGCTTCTTTCATTACTCCGTTAGTAACTGTTTTGCTATATACATTTACCTTTTAAGAGGAGGAAT
- cleaved RNA product abundance: 0.482

Sequence: CGACATGTCCCGCTTCTTTCATTACTCCGTTATCAACTGTTTTGCTATATACATTTACCTTTTAAGAGGAGGAAT
- cleaved RNA product abundance: 0.227

Sequence: CGACATGTCCCGCTTCTTTCATTACTCCGTTATGAACTGTTTTCCTATATACATTTACCTTTTAAGAGGAGGAAT
- cleaved RNA product abundance: 0.316

Sequence: CGACATGTCCCGCTTCTTTCATTACTCCGTTTACAACTGTTTTGCTATATACATTTACCTTTTAAGAGGAGGAAT
- cleaved RNA product abundance: 0.368

Sequence: CGACATGTCCCGCTTCTTTCATTACTCCGTTTGCAACTGTTTTGCTATATACATTTACCTTTTAAGAGGAGGAAT
- cleaved RNA product abundance: 0.667
